B1: TOX high mobility group box family member 3, residues 256 to 323; numbered along this chain, O15405 (parent)
chain: QKPVSAYALFFRDTQAAIKGQNPNATFGEVSKIVASMWDSLGEEQKQVYKRKTEAAKKEYLKALAAYR

± gives the uncertainty stated by the source.

The data set covers variants of B1. The data set is described as follows: abundance fitness (aPCA) (normalised: wild type 0, dead -1); higher = more abundant; growth selection in yeast, the domain comes from the species named. The conditions noted are these: Homo sapiens.
Consider QKPVSAYALFFRDTQAAIKGQNPNATFGEVSKIVASMWDSLGEEQKQVYSRKTEAAKKEYLKALAAYR, for which the abundance fitness was -0.181 ± 0.36. For QKPVSAYALFFRDTQAAIKGQNPNATFGEVSKIVASMWDSLGEEQKQVYARKTEAAKKEYLKALAAYR the value was -0.15 ± 0.24; for QKPVSAYALFFRDTQAAIKGQNPNATFGEVSKIVASMWDSLGEEQKQVYRRKTEAAKKEYLKALAAYR, 0.079 ± 0.25. In the case of QKPVSAYALFFRDTQAAIKGQNPNATFGEVSKIVASMWDSLGEEQFQVYKRKTEAAKKEYLKALAAYR it was -0.913 ± 0.19. In the case of QKPVSAYALFFRDTQAAIKGQNPNATFGEVSKIVASMWDSLGEEQSQVYKRKTEAAKKEYLKALAAYR it was -0.811 ± 0.12; in that of QKPVSAYALFFRDTQAAIKGQNPNATFGEVSKIVASMWDSLGEEQLQVYKRKTEAAKKEYLKALAAYR, -0.537 ± 0.058. Regarding QKPVSAYALFFRDTQAAIKGQNPNATFGEVSKIVASMWDSLGEEQQQVYKRKTEAAKKEYLKALAAYR, the abundance fitness was -0.08 ± 0.083.

Regarding QKPVSAYALFFRDTQAAIKGQNPNATFGEVSKIVASMWDSLGEEQGQVYKRKTEAAKKEYLKALAAYR, the abundance fitness is -0.8 ± 0.075.

Consider QKPVSAYALFFRDTQAAIKGQNPNATFGEVSKIVASMWDSLGEEQYQVYKRKTEAAKKEYLKALAAYR, for which the abundance fitness is -0.529 ± 0.17. For QKPVSAYALFFRDTQAAIKGQNPNATFGEVSKIVASMWDSLGEEQCQVYKRKTEAAKKEYLKALAAYR the value was -0.714 ± 0.18; for QKPVSAYALFFRDTQAAIKGQNPNATFGEVSKIVASMWDSLGEEQPQVYKRKTEAAKKEYLKALAAYR, -0.978 ± 0.19; for QKPVSAYALFFRDTQAAIKGQNPNATFGEVSKIVASMWDSLGEEQTQVYKRKTEAAKKEYLKALAAYR, -0.395 ± 0.11. In the case of QKPVSAYALFFRDTQAAIKGQNPNATFGEVSKIVASMWDSLGEEQEQVYKRKTEAAKKEYLKALAAYR it was -1.05 ± 0.19. For QKPVSAYALFFRDTQAAIKGQNPNATFGEVSKIVASMWDSLGEEQHQVYKRKTEAAKKEYLKALAAYR the value was -0.836 ± 0.24. Take QKPVSAYALFFRDTQAAIKGQNPNATFGEVSKIVASMWDSLGEEQMQVYKRKTEAAKKEYLKALAAYR: the abundance fitness is -0.356 ± 0.086. In the case of QKPVSAYALFFRDTQAAIKGQNPNATFGEVSKIVASMWDSLGEEQDQVYKRKTEAAKKEYLKALAAYR it was -0.678 ± 0.13; in that of QKPVSAYALFFRDTQAAIKGQNPNATFGEVSKIVASMWDSLGEEQIQVYKRKTEAAKKEYLKALAAYR, -0.398 ± 0.1; in that of QKPVSAYALFFRDTQAAIKGQNPNATFGEVSKIVASMWDSLGEEQVQVYKRKTEAAKKEYLKALAAYR, -0.437 ± 0.054.

Consider QKPVSAYALFFRDTQAAIKGQNPNATFGEVSKIVASMWDSLGEEQWQVYKRKTEAAKKEYLKALAAYR, for which the abundance fitness was -0.988 ± 0.24. In the case of QKPVSAYALFFRDTQAAIKGQNPNATFGEVSKIVASMWDSLGEEQKQIYKRKTEAAKKEYLKALAAYR it was -0.133 ± 0.19. For QKPVSAYALFFRDTQAAIKGQNPNATFGEVSKIVASMWDSLGEEQKQGYKRKTEAAKKEYLKALAAYR the value was 0.505 ± 0.26; for QKPVSAYALFFRDTQAAIKGQNPNATFGEVSKIVASMWDSLGEEQKQVYKRETEAAKKEYLKALAAYR, -0.219 ± 0.07.

As to QKPVSAYALFFRDTQAAIKGQNPNATFGEVSKIVASMWDSLGEEQKQVYKRMTEAAKKEYLKALAAYR, the abundance fitness is -0.373 ± 0.074.

QKPVSAYALFFRDTQAAIKGQNPNATFGEVSKIVASMWDSLGEEQKQVYKRTTEAAKKEYLKALAAYR: the abundance fitness was -0.426 ± 0.065.

As for QKPVSAYALFFRDTQAAIKGQNPNATFGEVSKIVASMWDSLGEEQKQVYKRNTEAAKKEYLKALAAYR, the abundance fitness was -0.133 ± 0.067. In the case of QKPVSAYALFFRDTQAAIKGQNPNATFGEVSKIVASMWDSLGEEQKQVYKRFTEAAKKEYLKALAAYR it was -0.93 ± 0.17. In the case of QKPVSAYALFFRDTQAAIKGQNPNATFGEVSKIVASMWDSLGEEQKQVYKRSTEAAKKEYLKALAAYR it was -0.145 ± 0.04. For QKPVSAYALFFRDTQAAIKGQNPNATFGEVSKIVASMWDSLGEEQKQVYKRATEAAKKEYLKALAAYR, the abundance fitness was -0.368 ± 0.055. In the case of QKPVSAYALFFRDTQAAIKGQNPNATFGEVSKIVASMWDSLGEEQKQVYKRQTEAAKKEYLKALAAYR, the abundance fitness was -0.291 ± 0.071.

Take QKPVSAYALFFRDTQAAIKGQNPNATFGEVSKIVASMWDSLGEEQKQVYKRITEAAKKEYLKALAAYR: the abundance fitness is -0.652 ± 0.081.

On to QKPVSAYALFFRDTQAAIKGQNPNATFGEVSKIVASMWDSLGEEQKQVYKRDTEAAKKEYLKALAAYR, for which the abundance fitness was -0.404 ± 0.078. In the case of QKPVSAYALFFRDTQAAIKGQNPNATFGEVSKIVASMWDSLGEEQKQVYKRRTEAAKKEYLKALAAYR it was 0.008 ± 0.042. For QKPVSAYALFFRDTQAAIKGQNPNATFGEVSKIVASMWDSLGEEQKQVYKRHTEAAKKEYLKALAAYR the value was -0.272 ± 0.066. For QKPVSAYALFFRDTQAAIKGQNPNATFGEVSKIVASMWDSLGEEQKQVYKRPTEAAKKEYLKALAAYR, the abundance fitness was -0.303 ± 0.079. Turning to QKPVSAYALFFRDTQAAIKGQNPNATFGEVSKIVASMWDSLGEEQKQVYKRGTEAAKKEYLKALAAYR, the abundance fitness was -0.474 ± 0.072. For QKPVSAYALFFRDTQAAIKGQNPNATFGEVSKIVASMWDSLGEEQKQVYKRCTEAAKKEYLKALAAYR the value was -0.547 ± 0.086. For QKPVSAYALFFRDTQAAIKGQNPNATFGEVSKIVASMWDSLGEEQKQVYKTKTEAAKKEYLKALAAYR the value was 0.042 ± 0.047. In the case of QKPVSAYALFFRDTQAAIKGQNPNATFGEVSKIVASMWDSLGEEQKQVYKPKTEAAKKEYLKALAAYR, the abundance fitness was -0.225 ± 0.059. In the case of QKPVSAYALFFRDTQAAIKGQNPNATFGEVSKIVASMWDSLGEEQKQVYKKKTEAAKKEYLKALAAYR it was 0.05 ± 0.084.

The values above are taken from the Human Domainome abundance scans (Beltran et al. 2025).
